Laboratory results reported in US20250222128A1, “ANTIBODY DRUG-CONJUGATES TARGETING C-MET AND METHODS OF USE THEREOF” (Zymeworks BC Inc., priority 2022, published 2025).

Columns and labels:
[1] = molecular target: c-Met (hepatocyte growth factor receptor, HGFR), endogenous on tumour cell lines (UniProt P08581); assay: apparent Kd, flow cytometry on H292 cells (endogenous cMet)
[2] = molecular target: c-Met (hepatocyte growth factor receptor, HGFR), endogenous on tumour cell lines (UniProt P08581); assay: cell-based or functional assay
[3] = molecular target: c-Met (hepatocyte growth factor receptor, HGFR), endogenous on tumour cell lines (UniProt P08581); assay: apparent Kd, flow cytometry on SNU-5 cells (endogenous cMet)

Sequence of c-Met (hepatocyte growth factor receptor, HGFR), endogenous on tumour cell lines (P08581 25-1390 limits assumed): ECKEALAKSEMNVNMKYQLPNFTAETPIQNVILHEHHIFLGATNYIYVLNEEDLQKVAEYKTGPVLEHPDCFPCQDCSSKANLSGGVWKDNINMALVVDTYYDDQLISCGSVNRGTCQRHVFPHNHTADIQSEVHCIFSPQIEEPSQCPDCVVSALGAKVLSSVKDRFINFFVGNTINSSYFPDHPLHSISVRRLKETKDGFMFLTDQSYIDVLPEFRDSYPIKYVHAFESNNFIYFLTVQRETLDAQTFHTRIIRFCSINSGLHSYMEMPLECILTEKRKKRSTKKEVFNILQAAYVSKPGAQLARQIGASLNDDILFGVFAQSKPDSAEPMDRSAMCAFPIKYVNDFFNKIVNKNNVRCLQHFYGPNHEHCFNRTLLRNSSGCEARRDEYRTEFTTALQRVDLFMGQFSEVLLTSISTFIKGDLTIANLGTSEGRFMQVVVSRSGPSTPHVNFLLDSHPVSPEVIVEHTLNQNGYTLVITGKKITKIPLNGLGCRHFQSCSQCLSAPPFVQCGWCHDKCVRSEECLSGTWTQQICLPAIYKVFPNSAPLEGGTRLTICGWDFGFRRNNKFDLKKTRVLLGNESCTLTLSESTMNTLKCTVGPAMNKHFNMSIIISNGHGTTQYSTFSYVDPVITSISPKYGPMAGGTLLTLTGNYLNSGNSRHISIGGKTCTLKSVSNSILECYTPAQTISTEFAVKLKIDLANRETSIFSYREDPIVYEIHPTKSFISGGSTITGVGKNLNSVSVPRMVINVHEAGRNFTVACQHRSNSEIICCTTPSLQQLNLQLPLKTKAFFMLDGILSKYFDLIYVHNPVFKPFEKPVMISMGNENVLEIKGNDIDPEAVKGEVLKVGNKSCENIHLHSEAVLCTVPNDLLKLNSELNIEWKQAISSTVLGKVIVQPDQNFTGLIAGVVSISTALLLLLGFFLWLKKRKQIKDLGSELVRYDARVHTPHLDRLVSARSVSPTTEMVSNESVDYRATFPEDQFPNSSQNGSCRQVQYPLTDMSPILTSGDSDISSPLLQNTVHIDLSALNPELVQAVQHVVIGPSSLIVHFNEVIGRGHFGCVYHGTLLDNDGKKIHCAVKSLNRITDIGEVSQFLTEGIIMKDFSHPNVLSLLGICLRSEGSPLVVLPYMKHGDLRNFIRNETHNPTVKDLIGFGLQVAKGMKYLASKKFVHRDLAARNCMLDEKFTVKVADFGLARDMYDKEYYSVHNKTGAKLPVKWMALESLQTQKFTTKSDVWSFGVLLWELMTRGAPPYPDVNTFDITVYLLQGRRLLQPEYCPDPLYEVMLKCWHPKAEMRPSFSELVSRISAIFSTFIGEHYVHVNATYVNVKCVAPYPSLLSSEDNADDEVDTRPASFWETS

In the case of “palivizumab (v22277), unconjugated anti-RSV antibody”, the Kd [1] is reported as > 0.05 µM, the Mean Object Fluorescence (Internalized), 5 Hours 37° C., EBC-1, 0.3 nM [2] is reported as 2690 and the Mean Object Fluorescence (Internalized), 5 Hours 37° C., EBC-1, 1.9 nM [2] is reported as 3050. It also gave a Mean Object Fluorescence (Internalized), 5 Hours 37° C., EBC-1, 12 nM [2] of 1990, a Mean Object Fluorescence (Internalized), 5 Hours 37° C., EBC-1, 70 nM [2] of 2600 and a Mean Object Fluorescence (Internalized), 5 Hours 37° C., HT-29, 0.3 nM [2] of 2750. It also gave a Mean Object Fluorescence (Internalized), 5 Hours 37° C., HT-29, 1.9 nM [2] of 2360, a Mean Object Fluorescence (Internalized), 5 Hours 37° C., HT-29, 12 nM [2] of 2330 and a Mean Object Fluorescence (Internalized), 5 Hours 37° C., HT-29, 70 nM [2] of 2290. The Kd [3] was > 0.05 µM.
